Target: the molecule itself
Assay: cross-linking

B1: OxyR (PA5344) of Pseudomonas aeruginosa PAO1 with a carboxyl-terminal His-tag (natural protein, UniProt Q9HTL4 1-310, looked up)
chain: MTLTELRYIVTLAQEQHFGRAAERCHVSQPTLSVGVKKLEDELGVLIFERSKSAVRLTPVGEGIVAQAQKVLEQAQGIRELAQAGKNQLAAPLKVGAIYTIGPYLFPHLIPQLHRVAPQMPLYIEENFTHILRDKLRTGELDAIIIALPFQEADVLTKPLFDEPFYVLMPADHPWTAKASIDSELLNDKSLLLLGEGHCFRDQVLEACPTVRKGDENKHTTVESSSLETIRHMVASGLGVSVLPFSAVDSHHYAPGVIEVRPFSAPVPFRTVAIAWRASFPRPRAIEVLADSIRLCSVARPQTQEQPQIA
Q: With B1 as the protein, how does the “stoichiometry N” value read?
A: Its value is 2.

— paper PMC3378865 (Nucleic Acids Research, 2012)
